Results on eight molecules are retold here after US20240059789A1 (Janssen / Centocor, published 2024).

A word on the EC50: it is the concentration that produces a half-maximal response. The low end stands for an effect from little substance, the high end for a need for much substance. Usually Kd stands for the concentration at which binding is half-saturated. Lower therefore signals higher affinity.

Experiment [1] deals with T1, Human PSMA on prostate cancer cell lines (C4-2B, 22RV1) (human, UniProt Q04609 1-750).
T1 construct: Endogenous PSMA of the human cell lines; also called PSMA+ cells; PSMA-expressing cell lines
T1 sequence (Q04609 whole entry): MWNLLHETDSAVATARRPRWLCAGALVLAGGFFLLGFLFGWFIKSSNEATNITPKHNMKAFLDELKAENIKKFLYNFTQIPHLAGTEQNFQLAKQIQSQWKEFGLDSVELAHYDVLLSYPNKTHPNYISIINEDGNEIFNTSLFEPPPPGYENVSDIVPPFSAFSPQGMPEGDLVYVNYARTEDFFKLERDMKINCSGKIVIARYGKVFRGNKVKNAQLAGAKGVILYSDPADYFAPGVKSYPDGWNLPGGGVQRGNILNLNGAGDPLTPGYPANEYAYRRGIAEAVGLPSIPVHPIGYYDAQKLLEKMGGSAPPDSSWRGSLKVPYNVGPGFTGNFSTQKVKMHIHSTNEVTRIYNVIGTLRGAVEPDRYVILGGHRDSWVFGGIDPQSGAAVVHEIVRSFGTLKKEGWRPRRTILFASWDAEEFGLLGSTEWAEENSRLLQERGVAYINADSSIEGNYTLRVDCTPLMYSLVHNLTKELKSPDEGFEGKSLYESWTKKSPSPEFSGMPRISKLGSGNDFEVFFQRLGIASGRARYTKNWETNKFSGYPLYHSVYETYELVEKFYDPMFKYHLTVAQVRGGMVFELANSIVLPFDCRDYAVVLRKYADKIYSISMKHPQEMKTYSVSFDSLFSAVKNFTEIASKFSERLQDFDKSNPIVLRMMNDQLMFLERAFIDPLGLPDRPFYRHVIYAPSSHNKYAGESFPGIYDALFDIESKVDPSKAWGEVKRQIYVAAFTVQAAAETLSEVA
Briefly: binding curves on C4-2B cells, 37 C, 1 h incubation, four-parameter fit. As to the method: Molecule concentrations ranged from 500-0 nM over 12-points at 3-fold dilution. […] Values reported in the Table 32 were generated by fitting the data to a four-parameter function for ligand binding generating values for y-min, y-max, EC50, and Hill. EC90 were calculated using the equation EC90=(90[…](100−90))\hat{ }(1/Hill)*EC50.

Experiment [2] deals with T1, Human PSMA on prostate cancer cell …. Briefly: flow cytometry on 22RV1 cells. As to the method:
(§1) Selected anti-PSMA antibodies were evaluated for binding to commercial prostate cancer cell lines. C4-2B cells were originally developed at MD Anderson and are derived from LNCaP FGC grown in vivo and metastasize to bone marrow (Thalmann, et al 1994, Cancer Research 54, 2577-81). 22Rv1 cells are a human prostate carcinoma epithelial cell line derived from a xenograft that was serially propagated in mice after castration-induced regression and relapse of the parental, androgen-dependent CWR22 xenograft. 22RV1 and C4-2B cells were plated at 50,000 cells per well in 50 μl of assay medium (RPMI, 10% HI FBS) in V bottom plates. Serial dilutions of antibodies were prepared in assay medium with 50 μl of antibody dilutions added to the plates containing cells. The plates were incubated for 60 min at 37° C. at which time 100 μl of staining buffer (Becton Dickinson Cat #554657) was added to all wells of each plate. The plates were centrifuged at 300×G for 5 minutes and the medium was removed from the wells. 200 μl of staining buffer was added to all wells of each plate. The plates were centrifuged at 300×G for 5 minutes and the medium was removed from the wells. 50 μl of 2 μg/ml AlexaFluor647-labeled goat anti-human Fc was added to all wells of the plates and the plates were incubated for 30 minutes at 4° C. 150 μl of staining buffer was added to all wells of each plate. The plates were centrifuged at 300×G for 5 minutes and the medium was removed from the wells.

For experiment [3] the target is unchanged. The experiment in a line: flow cytometry on C4-2B cells. The method, then:
as §1
A general note: In flow cytometry, cells or beads pass a laser one at a time.

Experiment [4] addresses T2, Human PSMA ECD (Lys44-Ala750), N-6xHis (PSMW39) (human, UniProt Q04609 44-750).
T2 construct: also called PSMW39.002; hu PSMA
The experiment in a line: SPR Biacore 8K, mAb captured by anti-Fc, antigen in solution. The method, then:
(§2) The association and dissociation were monitored for 3 and 15 minutes, respectively, using a flow rate of 50 μL/min. Raw binding data was referenced by subtracting the analyte binding signals from blanks and analyzed using a 1:1 Langmuir binding model using the Biacore Insight evaluation software to obtain the kinetics, which were used to calculate the binding affinity. The anti-PSMA were captured using an anti-human Fc antibody and the antigens were injected in solution.
(In general: Surface plasmon resonance follows binding to a sensor surface in real time, without labels.)

Experiment [5] deals with T3, Avi-6xHis-GS-cyno PSMA ECD (PSMW1) (Macaca fascicularis, UniProt Q04609 48-750 (human entry)).
T3 construct: also called PSMW1.009; cy PSMA
T3 chain: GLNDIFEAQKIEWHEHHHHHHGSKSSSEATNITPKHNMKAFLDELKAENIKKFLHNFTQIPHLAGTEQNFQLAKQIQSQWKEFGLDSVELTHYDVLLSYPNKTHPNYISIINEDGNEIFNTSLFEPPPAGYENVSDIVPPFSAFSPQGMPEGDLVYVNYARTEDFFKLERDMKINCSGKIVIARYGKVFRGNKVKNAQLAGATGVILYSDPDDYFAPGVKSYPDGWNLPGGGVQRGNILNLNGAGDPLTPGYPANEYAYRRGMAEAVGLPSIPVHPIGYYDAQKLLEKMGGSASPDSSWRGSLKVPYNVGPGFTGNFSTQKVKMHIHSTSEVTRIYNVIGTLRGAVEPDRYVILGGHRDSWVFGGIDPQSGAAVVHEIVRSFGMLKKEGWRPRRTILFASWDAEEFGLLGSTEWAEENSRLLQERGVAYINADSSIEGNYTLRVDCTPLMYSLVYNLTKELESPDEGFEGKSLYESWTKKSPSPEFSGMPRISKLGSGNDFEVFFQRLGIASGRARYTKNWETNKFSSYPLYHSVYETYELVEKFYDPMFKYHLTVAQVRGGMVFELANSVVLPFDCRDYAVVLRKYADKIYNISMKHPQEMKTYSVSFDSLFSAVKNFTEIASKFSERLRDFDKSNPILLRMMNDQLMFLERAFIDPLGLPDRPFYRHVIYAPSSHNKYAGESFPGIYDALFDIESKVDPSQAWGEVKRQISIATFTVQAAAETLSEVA
The description is as above. The method, then: as §2

Experiment [6] concerns the target Avi-6xHis-GS-mouse PSMA (45-752) (PSMW29) (Mus musculus, UniProt O35409 45-752). Described as above. The method, then:
as §2

Experiment [7] has as its target T1, Human PSMA on prostate cancer cell …. The experiment in a line: flow cytometry on 22RV1 cells; 22RV1 cells.

T2 sequence (Q04609 other isoform, or with tags, fused parts or gaps): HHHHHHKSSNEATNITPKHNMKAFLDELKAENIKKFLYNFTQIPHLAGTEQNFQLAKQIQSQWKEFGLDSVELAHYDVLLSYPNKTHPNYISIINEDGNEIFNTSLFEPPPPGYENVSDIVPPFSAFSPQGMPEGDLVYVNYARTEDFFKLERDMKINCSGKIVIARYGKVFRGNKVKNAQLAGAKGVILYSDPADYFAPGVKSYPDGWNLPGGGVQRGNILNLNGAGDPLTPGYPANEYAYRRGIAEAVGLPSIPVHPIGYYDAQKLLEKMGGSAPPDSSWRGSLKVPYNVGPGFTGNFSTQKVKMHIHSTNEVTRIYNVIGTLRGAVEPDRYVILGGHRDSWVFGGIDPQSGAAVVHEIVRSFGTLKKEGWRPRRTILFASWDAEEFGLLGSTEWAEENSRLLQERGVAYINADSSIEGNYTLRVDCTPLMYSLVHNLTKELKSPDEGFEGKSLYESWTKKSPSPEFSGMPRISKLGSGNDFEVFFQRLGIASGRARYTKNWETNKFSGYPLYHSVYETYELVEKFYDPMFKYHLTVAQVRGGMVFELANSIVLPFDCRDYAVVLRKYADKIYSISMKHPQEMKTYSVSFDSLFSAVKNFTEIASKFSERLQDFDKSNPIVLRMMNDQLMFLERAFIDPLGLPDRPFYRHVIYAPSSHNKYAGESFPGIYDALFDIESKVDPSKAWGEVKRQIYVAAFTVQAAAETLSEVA

B1: PSMB1069 (bispecific antibody, human IgG1, kappa, L234A L235A)
heavy: not shown
light: not shown
chain: QVQLVESGGGEVQPGRSLRLSCAASGFSFSGYGMHWVRQAPGKGLEWVAVMSYDGSNRFYVDSVRGRFSISRDNSKNTLYLQMNSLRPEDTAVYYCARDTVWGSHPDAFDIWGQGTVVTVSSGGSEGKSSGSGSESKSTGGSQSVLTQPPSVSVAPGQTARITCGGNNSGSKSVHWYQQKPGQAPVLVVYDDSDRPSGIPERFSGSNSGNTATLTISRVEAGDEADYYCQVWDSSSDHGVFGGGTKLTVLEPKSSDKTHTCPPCPAPEAAGGPSVFLFPPKPKDTLMISRTPEVTCVVVSVSHEDPEVKFNWYVDGVEVHNAKTKPREEQYNSTYRVVSVLTVLHQDWLNGKEYKCKVSNKALPAPIEKTISKAKGQPREPQVYVLPPSREEMTKNQVSLLCLVKGFYPSDIAVEWESNGQPENNYLTWPPVLDSDGSFFLYSKLTVDKSRWQQGNVFSCSVMHEALHNHYTQKSLSLSPG
notes: Null CD3 arm; one PSMA scFv; also called HC1 (ZWA): B23B62-Fab
Take B1: the “fold binding signal (Y-max) over the average of the molecules” value in experiment [1] stood at 2 fold.

B2: PSMB895 (antibody, human IgG1, lambda, L234A L235A, V domains shown)
VH: EVQLVESGGGLVQPGGSLRLSCAASGFTFSSYAMSWVRQAPGKGLEWVSAISGGIGSTYYADSVKGRFTISRDNSKNTLWLQMNSLRAEDTAVYYCAKDGVGATPYYFDYWGQGTLVTVSS
VL: QSVLTQPPSVSAAPGQKVTISCSGSSSNIGNNYVSWYQQLPGTAPKLLIYDNNKRPSGIPDRFSGSKSGTSATLGITGLQTGDEADYYCGTWDSSLSAYVFGTGTKVTVLG
Take B2: the EC50 turned out to be 1.71 nM in experiment [2] and 5.09 nM in experiment [3]. The Kd in experiment [4] stood at 0.704 nM; in experiment [5], 2.83 nM.

B3: PSMB897 (antibody, human IgG1, lambda, L234A L235A, V domains shown)
VH: EVQLVESGGGLVQPGGSLRLSCAASGFTFSSYAMSWVRQAPGKGLEWVSAISGGSGSTYYADSVKGRFTISRDNSKNTLYLQMNSLRAEDSAVYYCAKDGVGATPYYFDYWGQGTLVTVSS
VL: QSVLTQPPSVSAAPGQKVTISCSGSSSNIGNNYVSWYQQLPGTAPKLLIYDNNKRPSGIPDRFSGSKSGTSATLGITGLQTGDEADYYCGTWDSSLSAYVFGTGTKVTVLG
On to B3, for which the EC50 is 2.26 nM in experiment [2] and 4.76 nM in experiment [3]. The results for the Kd in experiment [4] and in experiment [5] were 1.28 nM and 3.93 nM, respectively.

B4: PSMB896 (antibody, human IgG1, lambda, L234A L235A, V domains shown)
VH: EVQLVESGGGLVQPGGSLRLSCAASGFTFSSYAMSWVRQAPGKGLEWVSAISGGIGSTYYADSVKGRFTISRDNSKNTLWLQMNSLRAEDTAVYYCAKDGVGATPYYFDYWGQGTLVTVSS
VL: QSVLTQPPSVSAAPGQKVTISCSGSSSNIGINYVSWYQQLPGTAPKLLIYDNNKRPSGIPDRFSGSKSGTSATLGITGLQTGDEADYYCGTWDSSLSAVVFGGGTKLTVLG
As for B4, the EC50 in experiment [2] was found to be 1.24 nM; in experiment [3], 25.8 nM. Further, the Kd in experiment [4] is ≤ 0.0876 nM; in experiment [5] it was 0.658 nM; in experiment [6] it was 1.36 nM.

B5: PSMB899 (antibody, human IgG1, lambda, L234A L235A, V domains shown)
VH: EVQLVESGGGLVQPGGSLRLSCTASGFIFSSYAMSWVRQAPGKGLEWVSAISGGYGAPYYADTVKGRFTISRDNSKNTLYLQMNSLRAEDTAVYYCAKDGVGATPYYFDDWGQGILVTVSS
VL: QSVLTQPPSVSAAPGQKVTISCSGSSSNIGNNYVSWYQQLPGTAPKLLIFDNNKRPSGIPDRFSGSKSGTSATLGITGLQTGDEADYYCGTWDSSLSAYVFGTGTKVTVLG
B5: the EC50 was determined as 1.02 nM in experiment [2] and 5.58 nM in experiment [3]. In addition, the results for the Kd in experiment [4] and in experiment [5] were 0.132 nM and 1.47 nM, respectively.

B6: PSMB898 (antibody, human IgG1, lambda, L234A L235A, V domains shown)
VH: EVQLVESGGGLVQPGGSLRLSCAASGFTFSSYAMSWVRQAPGKGLEWVSAISGGSGSTYYADSVKGRFTISRDNSKNTLYLQMNSLRAEDSAVYYCAKDGVGATPYYFDYWGQGTLVTVSS
VL: QSVLTQPPSVSAAPGQKVTISCSGSSSNIGINYVSWYQQLPGTAPKLLIYDNNKRPSGIPDRFSGSKSGTSATLGITGLQTGDEADYYCGTWDSSLSAVVFGGGTKLTVLG
Consider B6, for which the EC50 in experiment [2] was determined as 2.07 nM; in experiment [3] it was 6.53 nM. Moreover, the Kd in experiment [4] amounted to 0.333 nM; in experiment [5], 1.19 nM.

B7: PSMB891 (antibody, human IgG1, lambda, L234A L235A, V domains shown)
VH: EVQLVESGGGVVQPGRSLRLSCAASGFTFITYGMHWVRQAPGKGLEWVAVVSFDESNKYYADSVKGRFTISRDNSKNTLYLQMNSLRAEDTAVYYCARALRDGNNWDYFNGMDVWGQGTTVTVSS
VL: not shown
B7: the EC50 in experiment [2] worked out at 0.554 nM; in experiment [3], 1.99 nM. Also, the values for the Kd in experiment [4] and in experiment [5] were ≤ 0.253 nM and ≤ 0.21 nM, respectively.

B8: PSMB892 (antibody, human IgG1, lambda, L234A L235A, V domains shown)
VH: EVQLVESGGGVVQPGRSLRLSCAASGFTFITYGMHWVRQAPGKGLEWVAVVSFDESNKYYADSVKGRFTISRDNSKNTLYLQMNSLRAEDTAVYYCARALRDGNNWDYFNGMDVWGQGTTVTVSS
VL: QSVLTQPPSVSGAPGQRVTISCTGSSSNIGADYDVHWYQHLPGTAPKLLIYGNSNRPSGVPDRFSGSKSGTSASLAITGLQAEDETDYYCQSYDSSLSGWVFGGGTKLTVLG
With B8, the results for the EC50 in experiment [3] and in experiment [7] were 22.4 nM and > 60 nM, respectively. For the same molecule, the Kd was 3.22 nM in experiment [4], 5.67 nM in experiment [5] and 0.404 nM in experiment [6].
